Measurements taken from the Human Domainome abundance scans (Beltran et al. 2025).
± gives the uncertainty stated by the source.

B1: Retinoic acid receptor RXR-alpha, residues 132 to 208; numbered along this chain, P19793 (parent)
chain: KHICAICGDRSSGKHYGVYSCEGCKGFFKRTVRKDLTYTCRDNKDCLIDKRQRNRCQYCRYQKCLAMGMKREAVQEE
B2: Friend leukemia integration 1 transcription factor, residues 116 to 197; numbered along this chain, Q01543 (parent)
chain: NMTTNERRVIVPADPTLWTQEHVRQWLEWAIKEYSLMEIDTSFFQNMDGKELCKMNKEDFLRATTLYNTEVLLSHLSYLRES

Variants of: B1
Assay: abundance fitness (aPCA) (normalised: wild type 0, dead -1); higher = more abundant; growth selection in yeast, the domain comes from the species named
Conditions: Homo sapiens

Variant	abundance fitness
D45Y	-0.062 ± 0.063
D45V	-0.021 ± 0.071
D45S	-0.029 ± 0.035
E76V	0 ± 0.035
K14E	-0.034 ± 0.035
K14P	-0.004 ± 0.043
C40G	-0.815 ± 0.052
C40E	-0.405 ± 0.056
K44Y	-0.119 ± 0.098
K44N	0.025 ± 0.059
K44E	-0.033 ± 0.04
K44I	0.05 ± 0.066
K44L	-0.083 ± 0.035
K44P	-0.022 ± 0.054
K44Q	-0.04 ± 0.05
K44M	-0.03 ± 0.036
G68F	-0.091 ± 0.031
G68Y	-0.227 ± 0.04
Q57I	-0.167 ± 0.072
S11M	-0.111 ± 0.032
S11F	-0.087 ± 0.031
S11I	-0.113 ± 0.031
C7W	-1.22 ± 0.23
C7D	-0.357 ± 0.053
C7V	-1.11 ± 0.14

Variant	abundance fitness
C7E	-0.769 ± 0.13
C21W	-1.03 ± 0.085
C21E	-0.845 ± 0.072
A66N	-0.005 ± 0.036
A66G	0.017 ± 0.036
A66M	-0.042 ± 0.042
A66F	0.015 ± 0.034
A66S	0.015 ± 0.027
A66R	-0.019 ± 0.03
A66L	0.047 ± 0.028
E72W	0.041 ± 0.2
E72C	-0.047 ± 0.19
R10I	-0.021 ± 0.031
R10S	-0.046 ± 0.025
R10Y	-0.028 ± 0.029
R10A	-0.139 ± 0.028
R10D	-0.047 ± 0.034
R10E	-0.059 ± 0.034
D49G	0.07 ± 0.035
D49P	-0.018 ± 0.077
D49N	0.048 ± 0.065
D49Y	-0.183 ± 0.18
I3Q	-0.211 ± 0.045
I3H	0.017 ± 0.031
R53P	0.027 ± 0.037

Variant	abundance fitness
R53N	0.03 ± 0.033
R53E	0.061 ± 0.047
G23S	-0.288 ± 0.027
G23Y	-0.312 ± 0.035
G23V	-0.144 ± 0.025
G23W	-0.015 ± 0.028
T39W	-0.009 ± 0.039
T39D	0.045 ± 0.062
C4D	-0.807 ± 0.11
C4G	-0.914 ± 0.059
R30H	-0.252 ± 0.098
R30M	-0.141 ± 0.048
R30P	-0.554 ± 0.072
R30Q	-0.129 ± 0.049
C24L	-1.01 ± 0.058
C56S	-0.293 ± 0.38
C46A	-0.142 ± 0.04
C46P	-0.155 ± 0.045
C46K	-0.207 ± 0.052
C46E	-0.189 ± 0.046
K29P	-0.531 ± 0.08
K29W	0.003 ± 0.036
K29I	-0.163 ± 0.06
K29M	0.038 ± 0.041
K29T	0.021 ± 0.04

Variant	abundance fitness
V32G	-0.046 ± 0.024
V32S	-0.085 ± 0.026
G13R	-0.024 ± 0.031
T31I	-0.092 ± 0.034
T31Q	-0.079 ± 0.039
T31F	-0.078 ± 0.035
L36G	0.022 ± 0.026
L36Y	-0.055 ± 0.073
Y38T	0.036 ± 0.047
Y38W	-0.086 ± 0.036
Y38H	0.027 ± 0.071
Y38A	-0.061 ± 0.035
K50Y	-0.092 ± 0.078
K50S	-0.108 ± 0.05
K50I	-0.026 ± 0.077
K50F	-0.008 ± 0.095
S20R	-0.571 ± 0.029
S20A	0.047 ± 0.025
T37R	-0.039 ± 0.028
G17D	0.031 ± 0.063
G17I	-0.275 ± 0.087
G17E	0.005 ± 0.037
D9K	0.03 ± 0.044
L65I	-0.132 ± 0.077
L65V	0.033 ± 0.032

Variant	abundance fitness
L65T	0.057 ± 0.053
M69I	-0.275 ± 0.038
M69E	-0.322 ± 0.079
M69H	-0.548 ± 0.047
M69S	-0.262 ± 0.032
A73N	0.015 ± 0.036
A73S	0.004 ± 0.026
A73P	0.011 ± 0.032
A73Y	-0.056 ± 0.034
V74Q	-0.007 ± 0.045
V74D	-0.039 ± 0.043
V74A	-0.045 ± 0.032
V74K	0.056 ± 0.044
R51L	0.022 ± 0.038
R51I	-0.001 ± 0.062
R51P	0.045 ± 0.06
R51G	0.015 ± 0.028
K70H	0.037 ± 0.072
K1F	-0.217 ± 0.065
K1Y	-0.119 ± 0.045
K1N	-0.024 ± 0.045
H2I	0.189 ± 0.085
H2Y	-0.008 ± 0.067
H2E	0.055 ± 0.051
H15W	-0.078 ± 0.032

Variant	abundance fitness
H15M	-0.234 ± 0.031
H15D	-0.08 ± 0.036
H15G	-0.056 ± 0.024
H15T	-0.24 ± 0.029
E77R	0.003 ± 0.035
E77L	-0.012 ± 0.039
E77D	-0.002 ± 0.05
C59S	-0.657 ± 0.075
C59K	-1.05 ± 0.31
Y16K	-0.092 ± 0.031
Y16M	-0.001 ± 0.032
E22F	-0.097 ± 0.064
D35Y	-0.131 ± 0.21
D35G	-0.028 ± 0.25
Y58F	-0.02 ± 0.062
Y58N	-0.087 ± 0.08
Y58C	-0.066 ± 0.062
Y58T	-0.328 ± 0.064
Y19R	-0.097 ± 0.031
Y19G	-0.207 ± 0.037
Y19T	-0.073 ± 0.035
N54D	-0.128 ± 0.25
R71S	0.003 ± 0.024
R71G	-0.004 ± 0.027
R71Y	0.006 ± 0.033

Variant	abundance fitness
R71A	0.033 ± 0.029
G8T	0.016 ± 0.035
G8Y	-0.044 ± 0.043
G8A	-0.027 ± 0.037
G8F	0.006 ± 0.036
G8E	0.005 ± 0.069
L47T	0.012 ± 0.049
L47K	-0.062 ± 0.061
V18D	-0.205 ± 0.047
V18T	-0.357 ± 0.099
C64Y	-0.421 ± 0.4
R41C	0.096 ± 0.035
R41E	0.14 ± 0.05
R41M	0.018 ± 0.039
A5E	0.04 ± 0.036
A5D	0.016 ± 0.044
D42G	0.091 ± 0.34
N43G	0.053 ± 0.031
N43L	-0.009 ± 0.036
N43A	0.008 ± 0.039
Y61H	-0.08 ± 0.4
Q75P	-0.002 ± 0.033
Q75S	-0.004 ± 0.028
Q75A	-0.049 ± 0.033
Q75D	0.022 ± 0.041

Variant	abundance fitness
R33A	0.038 ± 0.035
R33G	-0.014 ± 0.031
R33E	0.044 ± 0.044
R33M	-0.003 ± 0.039
I48H	0.061 ± 0.19
I48S	-0.04 ± 0.041
I48D	-0.031 ± 0.15
I48C	-0.035 ± 0.057
I48Y	-0.342 ± 0.14
M67L	0.018 ± 0.025
M67A	0.009 ± 0.029
M67Y	-0.008 ± 0.031
G26Q	0.038 ± 0.035
S12T	0.114 ± 0.047
S12G	0.072 ± 0.032
S12Q	0.104 ± 0.064
S12N	0.091 ± 0.084
S12R	0.123 ± 0.032
S12L	0.019 ± 0.038
S12W	-0.072 ± 0.047

Variants of: B2
Assay: as above
Conditions: Homo sapiens

Variant	abundance fitness
M2L	-0.005 ± 0.07
M2F	0.092 ± 0.17
M2G	0.119 ± 0.12
M2W	-0.057 ± 0.14
M2T	-0.231 ± 0.13
M2R	0.057 ± 0.089
M2N	-0.184 ± 0.31
M2K	-0.314 ± 0.14
M2P	-0.099 ± 0.13
M2V	-0.584 ± 0.11
M2Q	0.011 ± 0.16
M2E	-0.361 ± 0.18
M2D	-0.545 ± 0.48
M2I	-0.081 ± 0.12
I10G	0.163 ± 0.082
I10A	0.15 ± 0.11
I10F	-0.216 ± 0.16
I10H	-0.033 ± 0.16
I10E	0.231 ± 0.08
I10D	0.207 ± 0.16
I10C	-0.258 ± 0.17
R7E	-0.044 ± 0.096
R7A	-0.243 ± 0.1
R7P	-0.045 ± 0.1

Variant	abundance fitness
R7G	-0.135 ± 0.092
R7F	-0.179 ± 0.23
R7C	-0.06 ± 0.4
R7Q	-0.092 ± 0.14
R7M	-0.089 ± 0.14
R7L	0.155 ± 0.058
R7Y	-0.125 ± 0.21
R7S	-0.156 ± 0.097
R7I	-0.247 ± 0.28
R7K	-0.292 ± 0.29
R7H	-0.284 ± 0.24
R7V	-0.05 ± 0.11
R7W	-0.179 ± 0.11
V9T	0.039 ± 0.098
V9W	0 ± 0.091
V9I	-0.122 ± 0.12
V9S	0.212 ± 0.073
V9F	-0.018 ± 0.2
V9L	-0.045 ± 0.068
V9A	0.14 ± 0.075
V9N	0.18 ± 0.16
V9M	-0.156 ± 0.095
V9R	0.172 ± 0.059
V9Y	-0.605 ± 0.46

Variant	abundance fitness
V9H	0.099 ± 0.34
V9K	0.116 ± 0.098
V9D	-0.055 ± 0.3
V9C	0.046 ± 0.17
N5E	-0.039 ± 0.099
N5H	-0.06 ± 0.23
N5Q	-0.228 ± 0.12
N5F	-0.089 ± 0.21
N5T	0.056 ± 0.08
N5R	-0.042 ± 0.054
N5M	-0.127 ± 0.12
N5K	0.004 ± 0.064
N5C	0.019 ± 0.2
N5Y	-0.121 ± 0.12
N5D	-0.011 ± 0.13
N5G	-0.042 ± 0.066
N5S	-0.152 ± 0.1
N5P	-0.017 ± 0.078
T4Q	-0.085 ± 0.092
T4P	-0.037 ± 0.095
T4G	-0.065 ± 0.11
T4A	0.069 ± 0.089
T4K	-0.005 ± 0.1
T4M	-0.075 ± 0.18

Variant	abundance fitness
T4I	0.017 ± 0.15
T4D	0.045 ± 0.14
T4W	-0.03 ± 0.17
T4F	-0.048 ± 0.12
T4V	0.003 ± 0.09
T4N	0.076 ± 0.23
T4H	-0.115 ± 0.1
E6M	-0.163 ± 0.15
E6C	-0.23 ± 0.39
E6S	-0.028 ± 0.084
E6L	0.001 ± 0.068
E6T	-0.013 ± 0.13
E6A	-0.185 ± 0.095
E6P	-0.126 ± 0.091
E6Q	-0.174 ± 0.15
E6F	-0.435 ± 0.21
E6H	-0.377 ± 0.49
E6G	-0.179 ± 0.09
E6N	-0.022 ± 0.17
E6V	-0.092 ± 0.082
E6Y	-0.308 ± 0.21
E6I	-0.087 ± 0.15
T3D	-0.537 ± 0.5
T3W	-0.022 ± 0.096

Variant	abundance fitness
T3I	-0.078 ± 0.21
T3Y	-0.201 ± 0.44
T3G	-0.098 ± 0.11
T3N	-0.076 ± 0.44
T3K	0.185 ± 0.18
T3L	-0.076 ± 0.076
T3S	0.06 ± 0.14
T3H	-0.359 ± 0.15
T3V	-0.201 ± 0.13
T3E	-0.392 ± 0.3
T3A	0.089 ± 0.16
T3R	-0.169 ± 0.094
T3C	0.009 ± 0.2
T3F	0.111 ± 0.41
T3Q	-0.136 ± 0.12
T3M	0.037 ± 0.11
T3P	-0.246 ± 0.089
N1R	-0.111 ± 0.2
N1V	-0.166 ± 0.12
N1I	0.178 ± 0.41
N1L	-0.137 ± 0.45
N1Y	0.004 ± 0.3
N1M	-0.031 ± 0.19
N1K	-0.34 ± 0.35

Variant	abundance fitness
N1G	-0.212 ± 0.14
N1A	-0.076 ± 0.25
R8L	-0.369 ± 0.1
R8F	-0.174 ± 0.2
R8A	-0.172 ± 0.099
R8H	-0.039 ± 0.14
R8E	0.045 ± 0.13
R8V	-0.297 ± 0.14
R8Q	-0.097 ± 0.11
R8D	0.015 ± 0.2
R8M	-0.108 ± 0.1
R8P	-0.026 ± 0.12
R8T	-0.236 ± 0.14
R8S	-0.215 ± 0.09
R8C	-0.301 ± 0.26
R8G	-0.52 ± 0.12
R8Y	-0.403 ± 0.24
R8W	-0.452 ± 0.18
R8I	-0.406 ± 0.21
